From patent US20160193299A1, “MODIFIED NUCLEOSIDE, NUCLEOTIDE, AND NUCLEIC ACID COMPOSITIONS” (Moderna Therapeutics, Inc., priority 2011, published 2016)

Assays:
[1] = test system: HEK293; experiment: Example 46B percent-modified G-CSF mRNA transfected in HEK293, secreted G-CSF ELISA; assay type: cell-based, human
Experimental: Human embryonic kidney epithelial (HEK293) cells were seeded on 96-well plates at a density of 30,000 cells per well in 100 ul cell culture medium. 250 ng of modified G-CSF mRNA (SEQ ID NO: 6; polyA tail of approximately 160 nucleotides not shown in sequence; 5′cap, Cap1) formulated with RNAiMAX™ (Invitrogen, Carlsbad, Calif.) was added to a well. The G-CSF was completely modified with 5mC and pseudoU (100% modification), not modified with 5mC and pseudoU (0% modification) or was partially modified with 5mC and pseudoU so the mRNA would contain 75% modification, 50% modification or 25% modification. Control samples (AK 5/2, mCherry (SEQ ID NO: 7; polyA tail of approximately 160 nucleotides not shown in sequence; 5′cap, Cap1; fully modified 5mC and pseudoU) and untreated) were also analyzed. […] The supernatants were harvested after 16 hours and the secreted G-CSF protein was analyzed by ELISA.

[2] = test system: G-CSF; experiment: Example 18 time course in vivo study, serum G-CSF ELISA; conditions: mice IV
Experimental: Formulations, listed in Table 31, were characterized by particle size, zeta potential, and encapsulation.
LNP formulations, shown in Table 31 (above), were administered to mice (n=5) intravenously (IV) at a single modified mRNA dose of 0.5, 0.05 or 0.005 mg/kg. The mice were bled at 8 hours, 24 hours, 72 hours and 6 days after they were administered with G-CSF or EPO modified mRNA formulations to determine protein expression using ELISA.

[3] = test system: neutrophils; experiment: Example 22 non-human primate study, neutrophil count; assay type: in vivo, cynomolgus monkey
Experimental: (§1) LNP formulations, shown in Table 31 (above), were administered to non-human primates (NHP) (cynomolgus monkey) (n=2) as intravenous injection (IV). The NHP were administered a single modified mRNA IV dose of 0.5 mg/kg, 0.05 mg/kg or 0.005 mg/kg of G-CSF or EPO in a dose volume of 0.5 mL/kg. The NHPs were bled before dosing with the modified mRNA LNP formulations to determine protein expression in the serum and a baseline complete blood count. After administration with the G-CSF modified mRNA formulation the NHP were bled at 8, 24, 48 and 72 hours to determined protein expression. After administration with the EPO modified mRNA formulation the NHP were bled at 8, 24, 48, 72 hours and 7 days to determined protein expression.
Samples collected from the NHPs after they were administered with G-CSF or EPO modified mRNA formulations were analyzed by ELISA to determine protein expression. Neutrophil and reticulocyte count was also determined pre-dose, 24 hours, 3 days, 7 days, 14 days and 18 days after administration of the modified G-CSF or EPO formulation.

[4] = test system: alanine transaminase (ALT); experiment: Example 22 non-human primate study, serum chemistry alanine transaminase (ALT); assay type: in vivo, cynomolgus monkey
Experimental: as §1

[5] = test system: neutrophil count; experiment: Example 41 intravenous administration of lipoplexed G-CSF mRNA, neutrophil count; assay type: in vivo; conditions: mice IV, 10% lipoplex, 50 ug at days 0, 2, 4; day 5
Experimental: Neutrophils were measured at days 1, 5 and 8. Controls included non-specific mammalian RNA or the formulation buffer alone (F.Buffer). The mice were bled at days 1, 5 and 8 to determine the effect of mRNA-encoded human G-CSF to increase neutrophil count. The dosing regimen is shown in Table 64 as are the resulting neutrophil counts (thousands/uL; K/uL).

[6] = test system: interferon-alpha (IFN-alpha); experiment: Example 22 non-human primate study, cytokine interferon-alpha (IFN-alpha); assay type: in vivo, cynomolgus monkey
Experimental: as §1

[7] = test system: human G-CSF; experiment: Example 32B human G-CSF modified RNA lipoplex IM/SC/IV, serum human G-CSF ELISA; assay type: in vivo, C57/BL6 mice; conditions: I.M., 100 μg, lipoplexed with 30% RNAIMAX, serum 6 hours
Experimental: 6 hours after administration of a formulation, serum was collected from each mouse to measure the amount of human G-CSF protein in the mouse serum by human G-CSF ELISA and the results are shown in Table 54.

[8] = Female NHP, 0.005 mg/kg, 7 days
[9] = Female NHP, 0.005 mg/kg, Pre-dose
[10] = Female NHP, 0.05 mg/kg, Pre-dose
[11] = Female NHP, 0.5 mg/kg, Pre-dose
[12] = Male NHP, 0.005 mg/kg, Pre-dose
[13] = Female NHP, 0.005 mg/kg, 4 days

B1: G-CSF: human G-CSF mRNA SEQ ID NO: 6, polyA ~160 nt, Cap1, fully modified with 5-methylcytosine and pseudouridine (nucleic acid, listed as Homo sapiens)
chain: GGGAAAUAAGAGAGAAAAGAAGAGUAAGAAGAAAUAUAAGAGCCACCAUGGCCGGUCCCGCGACCCAAAGCCCCAUGAAACUUAUGGCCCUGCAGUUGCUGCUUUGGCACUCGGCCCUCUGGACAGUCCAAGAAGCGACUCCUCUCGGACCUGCCUCAUCGUUGCCGCAGUCAUUCCUUUUGAAGUGUCUGGAGCAGGUGCGAAAGAUUCAGGGCGAUGGAGCCGCACUCCAAGAGAAGCUCUGCGCGACAUACAAACUUUGCCAUCCCGAGGAGCUCGUACUGCUCGGGCACAGCUUGGGGAUUCCCUGGGCUCCUCUCUCGUCCUGUCCGUCGCAGGCUUUGCAGUUGGCAGGGUGCCUUUCCCAGCUCCACUCCGGUUUGUUCUUGUAUCAGGGACUGCUGCAAGCCCUUGAGGGAAUCUCGCCAGAAUUGGGCCCGACGCUGGACACGUUGCAGCUCGACGUGGCGGAUUUCGCAACAACCAUCUGGCAGCAGAUGGAGGAACUGGGGAUGGCACCCGCGCUGCAGCCCACGCAGGGGGCAAUGCCGGCCUUUGCGUCCGCGUUUCAGCGCAGGGCGGGUGGAGUCCUCGUAGCGAGCCACCUUCAAUCAUUUUUGGAAGUCUCGUACCGGGUGCUGAGACAUCUUGCGCAGCCGUGAAGCGCUGCCUUCUGCGGGGCUUGCCUUCUGGCCAUGCCCUUCUUCUCUCCCUUGCACCUGUACCUCUUGGUCUUUGAAUAAAGCCUGAGUAGGAAG
modifications: polyA ~160, Cap1, 5mC/pseudouridine modified
half-life [1]: 8 to 10 h | G-CSF protein expression detectable out to ([2]; 0.005 mg/kg and 0.05 mg/kg): 72 h | G-CSF Serum Concentration ([2]; 0.005 mg/kg, 8 hours): 11,550.6 pg/ml | G-CSF Serum Concentration ([2]; 0.005 mg/kg, 24 hours): 5,068.9 pg/ml | G-CSF Serum Concentration ([2]; 0.05 mg/kg, 8 hours): 462,312.5 pg/ml | G-CSF Serum Concentration ([2]; 0.05 mg/kg, 24 hours): 80,903.8 pg/ml | G-CSF Serum Concentration ([2]; 0.5 mg/kg, 8 hours): >1,250,000 pg/ml | G-CSF Serum Concentration ([2]; 0.5 mg/kg, 24 hours): 495,812.5 pg/ml | G-CSF Serum Concentration ([2]; 0.5 mg/kg, 72 hours): 1,325.6 pg/ml | Neutrophils ([3]; Female NHP, 0.005 mg/kg, 14/18 days): 2.28 10^9/L | Neutrophils ([3]; Female NHP, 0.005 mg/kg, 24 hours): 8.6 10^9/L | Neutrophils ([3]; Female NHP, 0.005 mg/kg, 3 days): 1.78 10^9/L | Neutrophils [3, 8]: 2.27 10^9/L | Neutrophils [3, 9]: 2.54 10^9/L | Neutrophils ([3]; Female NHP, 0.05 mg/kg, 14/18 days): 1.82 10^9/L | Neutrophils ([3]; Female NHP, 0.05 mg/kg, 24 hours): 29.91 10^9/L | Neutrophils ([3]; Female NHP, 0.05 mg/kg, 3 days): 10.77 10^9/L | Neutrophils ([3]; Female NHP, 0.05 mg/kg, 7 days): 3.8 10^9/L | Neutrophils [3, 10]: 3.05 10^9/L | Neutrophils ([3]; Female NHP, 0.5 mg/kg, 14/18 days): 1.98 10^9/L | Neutrophils ([3]; Female NHP, 0.5 mg/kg, 24 hours): 13.96 10^9/L | Neutrophils ([3]; Female NHP, 0.5 mg/kg, 3 days): 13.7 10^9/L | Neutrophils ([3]; Female NHP, 0.5 mg/kg, 7 days): 3.81 10^9/L | Neutrophils [3, 11]: 1.27 10^9/L | Neutrophils ([3]; Male NHP, 0.005 mg/kg, 14/18 days): 4.31 10^9/L | Neutrophils ([3]; Male NHP, 0.005 mg/kg, 24 hours): 16.44 10^9/L | Neutrophils ([3]; Male NHP, 0.005 mg/kg, 3 days): 3.74 10^9/L | Neutrophils ([3]; Male NHP, 0.005 mg/kg, 7 days): 7.28 10^9/L | Neutrophils [3, 12]: 1.52 10^9/L | Neutrophils ([3]; Male NHP, 0.05 mg/kg, 14/18 days): 3.59 10^9/L | Neutrophils ([3]; Male NHP, 0.05 mg/kg, 24 hours): 19.92 10^9/L | Neutrophils ([3]; Male NHP, 0.05 mg/kg, 3 days): 7.49 10^9/L | Neutrophils ([3]; Male NHP, 0.05 mg/kg, 7 days): 4.13 10^9/L | Neutrophils ([3]; Male NHP, 0.05 mg/kg, Pre-dose): 13.74 10^9/L | Neutrophils ([3]; Male NHP, 0.5 mg/kg, 14/18 days): 2.58 10^9/L | Neutrophils ([3]; Male NHP, 0.5 mg/kg, 24 hours): 14.92 10^9/L | Neutrophils ([3]; Male NHP, 0.5 mg/kg, 3 days): 9.76 10^9/L | Neutrophils ([3]; Male NHP, 0.5 mg/kg, 7 days): 2.74 10^9/L | Neutrophils ([3]; Male NHP, 0.5 mg/kg, Pre-dose): 1.53 10^9/L | neutrophils relative to pre-dose levels ([3]; NHP, all G-CSF groups): increase in neutrophils | ALT ([4]; Female NHP, 0.005 mg/kg, 2 days): 32 U/L | ALT [4, 13]: 58 U/L | ALT [4, 8]: 55 U/L | ALT ([4]; Female NHP, 0.005 mg/kg, 14 days): 46 U/L | ALT [4, 9]: 51 U/L | ALT ([4]; Female NHP, 0.05 mg/kg, 2 days): 39 U/L | ALT ([4]; Female NHP, 0.05 mg/kg, 4 days): 56 U/L | ALT ([4]; Female NHP, 0.05 mg/kg, 7 days): 73 U/L | ALT ([4]; Female NHP, 0.05 mg/kg, 14 days): 31 U/L | ALT [4, 10]: 53 U/L | ALT ([4]; Female NHP, 0.5 mg/kg, 2 days): 209 U/L | ALT ([4]; Female NHP, 0.5 mg/kg, 4 days): 98 U/L | ALT ([4]; Female NHP, 0.5 mg/kg, 7 days): 149 U/L | ALT ([4]; Female NHP, 0.5 mg/kg, 14 days): 145 U/L | ALT [4, 11]: 216 U/L | ALT ([4]; Male NHP, 0.005 mg/kg, 2 days): 39 U/L | ALT ([4]; Male NHP, 0.005 mg/kg, 4 days): 48 U/L | ALT ([4]; Male NHP, 0.005 mg/kg, 7 days): 29 U/L | ALT ([4]; Male NHP, 0.005 mg/kg, 14 days): 44 U/L | ALT [4, 12]: 43 U/L | ALT ([4]; Male NHP, 0.05 mg/kg, 2 days): 82 U/L | ALT ([4]; Male NHP, 0.05 mg/kg, 4 days): 88 U/L | ALT ([4]; Male NHP, 0.05 mg/kg, 7 days): 73 U/L | ALT ([4]; Male NHP, 0.05 mg/kg, 14 days): 50 U/L | ALT ([4]; Male NHP, 0.05 mg/kg, Pre-dose): 58 U/L | ALT ([4]; Male NHP, 0.5 mg/kg, 2 days): 63 U/L | ALT ([4]; Male NHP, 0.5 mg/kg, 4 days): 70 U/L | ALT ([4]; Male NHP, 0.5 mg/kg, 7 days): 41 U/L | ALT ([4]; Male NHP, 0.5 mg/kg, 14 days): 43 U/L | ALT ([4]; Male NHP, 0.5 mg/kg, Pre-dose): 29 U/L | increase in neutrophil count above control [5]: four to five fold increase | IFN-alpha [6, 13]: 0 pg/mL | IFN-alpha ([6]; Female NHP, 0.005 mg/kg, Day 1 + 8 hr): 0 pg/mL | IFN-alpha [6, 9]: 0 pg/mL | IFN-alpha ([6]; Female NHP, 0.05 mg/kg, 4 days): 0 pg/mL | IFN-alpha ([6]; Female NHP, 0.05 mg/kg, Day 1 + 8 hr): 0 pg/mL | IFN-alpha [6, 10]: 0 pg/mL | IFN-alpha ([6]; Female NHP, 0.5 mg/kg, 4 days): 0 pg/mL | IFN-alpha ([6]; Female NHP, 0.5 mg/kg, Day 1 + 8 hr): 529.2 pg/mL | IFN-alpha [6, 11]: 0 pg/mL | IFN-alpha ([6]; Male NHP, 0.005 mg/kg, 4 days): 0 pg/mL | IFN-alpha ([6]; Male NHP, 0.005 mg/kg, Day 1 + 8 hr): 0 pg/mL | IFN-alpha [6, 12]: 0 pg/mL | IFN-alpha ([6]; Male NHP, 0.05 mg/kg, 4 days): 0 pg/mL | IFN-alpha ([6]; Male NHP, 0.05 mg/kg, Day 1 + 8 hr): 0 pg/mL | IFN-alpha ([6]; Male NHP, 0.05 mg/kg, Pre-dose): 0 pg/mL | IFN-alpha ([6]; Male NHP, 0.5 mg/kg, 4 days): 0 pg/mL | IFN-alpha ([6]; Male NHP, 0.5 mg/kg, Day 1 + 8 hr): 503.8 pg/mL | IFN-alpha ([6]; Male NHP, 0.5 mg/kg, Pre-dose): 0 pg/mL | G-CSF [7]: 85.6 pg/mL
